Assay results reported in paper PMC9534960, “De Novo Design of an Androgen Receptor DNA Binding Domain‐Targeted peptide PROTAC for Prostate Cancer Therapy” (Advanced Science, 2022).
Where “and” joins values, the source holds several entries; their conditions need not be identical. Equal values may be shown once.

Tests used:
Details in all cases: both partners purified
[1] = target: T1, Androgen receptor splice variant‐7 (AR‐V7), recombinant from E. coli (UniProt P10275-3 1-644); test: ITC; protein (around 20 µM, 0.2 ml) in the sample cell, peptide (around 200 µM) in the syringe; 25 °C; first injection 0.4 µl, then 19 injections of 2 µl
T1 construct: Plasmid bought from GenScript; also called pET‐28a (AR – V7); pET28‐AR‐V7; not shown: His tag (from the vector pET‐28a)
T1 sequence (looked up): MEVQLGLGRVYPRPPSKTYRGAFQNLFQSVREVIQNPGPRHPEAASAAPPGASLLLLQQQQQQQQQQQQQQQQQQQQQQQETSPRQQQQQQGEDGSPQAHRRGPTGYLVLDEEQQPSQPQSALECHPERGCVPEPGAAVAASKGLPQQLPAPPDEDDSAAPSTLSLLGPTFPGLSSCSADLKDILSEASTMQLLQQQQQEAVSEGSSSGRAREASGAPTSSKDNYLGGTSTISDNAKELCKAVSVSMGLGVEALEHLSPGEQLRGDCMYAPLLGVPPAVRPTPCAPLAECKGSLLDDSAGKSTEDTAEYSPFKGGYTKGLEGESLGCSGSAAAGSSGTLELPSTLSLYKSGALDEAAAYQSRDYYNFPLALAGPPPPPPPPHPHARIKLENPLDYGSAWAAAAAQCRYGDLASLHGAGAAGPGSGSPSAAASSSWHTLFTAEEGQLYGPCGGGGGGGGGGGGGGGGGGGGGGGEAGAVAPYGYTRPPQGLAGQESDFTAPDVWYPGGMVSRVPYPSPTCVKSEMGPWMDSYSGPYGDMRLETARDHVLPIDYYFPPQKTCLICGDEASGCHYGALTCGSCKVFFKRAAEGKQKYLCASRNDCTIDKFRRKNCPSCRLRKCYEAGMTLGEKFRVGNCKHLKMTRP

[2] = target: T2, MDM2, recombinant from E. coli (UniProt Q00987 1-491); test: as above
T2 construct: E3 ligase MDM2; Plasmid bought from GenScript; also called E3 ligase MDM2; pET‐28a (MDM2)
T2 sequence (Q00987 whole entry): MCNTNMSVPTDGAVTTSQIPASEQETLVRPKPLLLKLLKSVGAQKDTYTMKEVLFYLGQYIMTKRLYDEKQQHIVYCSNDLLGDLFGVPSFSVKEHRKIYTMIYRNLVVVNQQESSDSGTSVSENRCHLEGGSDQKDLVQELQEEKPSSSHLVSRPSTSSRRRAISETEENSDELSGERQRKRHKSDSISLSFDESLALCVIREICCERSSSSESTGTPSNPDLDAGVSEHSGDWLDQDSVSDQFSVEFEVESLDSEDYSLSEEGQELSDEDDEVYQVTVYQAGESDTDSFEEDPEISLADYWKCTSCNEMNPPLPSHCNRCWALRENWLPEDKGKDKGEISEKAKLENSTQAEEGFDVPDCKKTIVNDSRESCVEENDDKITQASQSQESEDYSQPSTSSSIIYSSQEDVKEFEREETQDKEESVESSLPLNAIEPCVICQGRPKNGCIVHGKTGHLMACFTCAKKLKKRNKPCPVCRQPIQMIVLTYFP

MDMX = target: T3, MDMX (UniProt O15151 1-490); test: as above
T3 construct: MDMX; MDMX is not in the methods' list of proteins made in E. coli
T3 sequence (looked up): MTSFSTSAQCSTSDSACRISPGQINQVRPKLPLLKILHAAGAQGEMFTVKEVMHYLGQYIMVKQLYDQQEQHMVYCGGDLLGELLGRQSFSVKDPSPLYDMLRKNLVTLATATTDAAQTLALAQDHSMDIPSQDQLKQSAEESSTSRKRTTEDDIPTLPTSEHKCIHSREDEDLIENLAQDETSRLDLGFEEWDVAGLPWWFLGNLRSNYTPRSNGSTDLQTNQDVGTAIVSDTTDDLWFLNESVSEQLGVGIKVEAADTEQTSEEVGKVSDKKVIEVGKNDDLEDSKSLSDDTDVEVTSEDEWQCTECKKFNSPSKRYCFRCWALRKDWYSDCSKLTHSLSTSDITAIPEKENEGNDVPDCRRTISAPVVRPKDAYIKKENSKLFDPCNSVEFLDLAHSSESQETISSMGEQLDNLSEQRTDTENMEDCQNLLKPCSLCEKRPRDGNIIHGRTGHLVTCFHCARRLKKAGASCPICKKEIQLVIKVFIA

[3] = target: T4, AR DBD domain protein, labeled with rhodamine B (rhodamine B label); test: fluorescence polarisation; rhodamine B labeled AR DBD, 200 nM of AR DBD dimer in complex with DNA, rising AR pep‐PROTAC concentration; maximum FP taken as 100% dimer, minimum as monomer
T4 chain: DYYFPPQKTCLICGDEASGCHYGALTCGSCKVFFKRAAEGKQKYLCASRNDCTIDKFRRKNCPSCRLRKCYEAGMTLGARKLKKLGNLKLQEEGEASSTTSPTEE

B1: AR pep‐PROTAC drug (designed peptide PROTAC) (peptide)
peptide: YLCSSNNNRERDKFRRGGSGGTSFEQFWAWLWP
notes: flexible linker; Free peptide in ITC and fluorescence polarisation; also called AR DBD PROTAC; AR DBD PROTAC drug; source: synthetic peptide (solid‐phase peptide synthesis, preparative HPLC)
Kd [1]: 49.6 nM and 49.5 nM
Kd [2]: 12.2 nM
Kd (MDMX): 1430 nM
EC50 [3]: 1800 nM
